Measurements as given in publication PMC4136552 (Journal of molecular recognition : JMR, 2011).

Key:
[1] = target: erbB2 peptide (Homo sapiens) (UniProt P04626); details: cited from earlier work
[2] = target: hGrb7-RA-PH domains (residues 103-341), hexa-histidine fusion (human, UniProt Q14451 103-341); assay: ITC
hGrb7-RA-PH domains (residues 103-341), hexa-histidine fusion, sequence (Q14451 103-341): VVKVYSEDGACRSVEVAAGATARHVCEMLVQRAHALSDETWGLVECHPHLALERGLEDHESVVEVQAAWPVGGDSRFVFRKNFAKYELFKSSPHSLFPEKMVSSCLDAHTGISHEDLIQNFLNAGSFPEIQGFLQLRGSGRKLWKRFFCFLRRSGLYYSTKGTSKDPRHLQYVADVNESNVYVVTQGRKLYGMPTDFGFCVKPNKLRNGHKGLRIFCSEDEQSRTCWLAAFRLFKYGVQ

Molecule: Grb7 SH2 (from UniProt Q14451)
- Kd [1]: 2280 nM

B1: human Grb7-SH2 domain (domain or fragment, UniProt Q14451 431-527, looked up)
chain: WFHGRISREESQRLIGQQGLVDGLFLVRESQRNPQGFVLSLCHLQKVKHYLILPSEEEGRLYFSMDDGQTRFTDLLQLVEFHQLNRGILPCLLRHCC
- Kd [2]: 2800 nM
